The results in this text go back to patent publication US8058240B2, “Biological active ligands of melanocortin receptors” (University of Florida Research Foundation, Inc., priority 2006, dated 2011).

The target of one assay is T1, wild type (WT) hMC4R (Homo sapiens, UniProt P32245).
T1 construct: expressed in transfected cells
Put plainly: cAMP based functional bioassay, antagonist Schild analysis against agonist MTII. Format: cell-based. The note with it: ± SEM.

Assay [1] has as its target T2, S58C hMC4R (Homo sapiens, UniProt P32245, S58C).
T2 construct: expressed in transfected cells
Described as above. It is filed as cell-based. The note with it: ± SEM.

The next assay concerns the target T3, N97D hMC4R (Homo sapiens, UniProt P32245, N97D).
T3 construct: expressed in transfected cells
The description is as above. Format: cell-based.

For another assay, the target named is T4, I102S hMC4R (Homo sapiens, UniProt P32245, I102S).
T4 construct: expressed in transfected cells
The description is as above. Format: cell-based. Conditions: ± SEM.

In assay [2] the target is T5, L106P hMC4R (Homo sapiens, UniProt P32245, L106P).
T5 construct: expressed in transfected cells
The assay is described as above. The note with it: ± SEM. It is filed as cell-based.

The next assay addresses T6, S127L hMC4R (Homo sapiens, UniProt P32245, S127L).
T6 construct: expressed in transfected cells
The assay is described as above. Format: cell-based.

The target of the next assay is T7, I137T hMC4R (Homo sapiens, UniProt P32245, I137T).
T7 construct: expressed in transfected cells
Described as above. It is filed as cell-based. Conditions: ± SEM.

In a further assay the target is T8, T150I hMC4R (Homo sapiens, UniProt P32245, T150I).
T8 construct: expressed in transfected cells
The description is as above. It is filed as cell-based. Conditions: ± SEM.

The target in another assay is T9, R165Q hMC4R (Homo sapiens, UniProt P32245, R165Q).
T9 construct: expressed in transfected cells
Described as above. It is filed as cell-based. Conditions: ± SEM.

The target in a further assay is T10, R165W hMC4R (Homo sapiens, UniProt P32245, R165W).
T10 construct: expressed in transfected cells
Described as above. It is filed as cell-based. Conditions: ± SEM.

The target of a further assay is T11, G252S hMC4R (Homo sapiens, UniProt P32245, G252S).
T11 construct: expressed in transfected cells
The assay is described as above. It is filed as cell-based. Conditions: ± SEM.

The next assay concerns the target T12, V253I hMC4R (Homo sapiens, UniProt P32245, V253I).
T12 construct: expressed in transfected cells
The assay is described as above. It is filed as cell-based. Conditions: ± SEM.

Assay [3] concerns the target T13, C271Y hMC4R (Homo sapiens, UniProt P32245, C271Y).
T13 construct: expressed in transfected cells
The assay is described as above. Format: cell-based. Conditions: ± SEM.

The target of the next assay is T14, I301T hMC4R (Homo sapiens, UniProt P32245, I301T).
T14 construct: expressed in transfected cells
The description is as above. It is filed as cell-based. The note with it: ± SEM.

Assay [4] deals with T13, C271Y hMC4R. Description: cAMP based functional bioassay, agonist stimulation, stably transfected HEK-293 cells. Format: cell-based.
A further assay deals with polymorphic hMC4Rs. Put plainly: cAMP based functional bioassay, summary statements for the polymorphic hMC4Rs as a group. It is filed as cell-based, human.
The target in assay [5] is T2, S58C hMC4R. Put plainly: cAMP based functional bioassay, agonist stimulation, stably transfected HEK-293 cells. It is filed as cell-based. The note with it: S58C hMC4R as printed; at up to 10^−5 M concentrations.
Assay [6] has as its target T5, L106P hMC4R. The assay is described as above. It is filed as cell-based. The note with it: HEK293, L106P hMC4R, read-out: stimulation (maximal stimulation less than the forskolin control level).
Setting [7] is: Schild analysis, agonist MTII, ± SEM.

Ends that are not written are not given here.

For the compound “hAGRP(87-132): endogenous C-terminal antagonist agouti-related protein ligand, purchased from Peptides International”, the “Antagonist pA2” value was found to be 8.28 ± 0.11 with wild type (WT) hMC4R; 8.02 ± 0.13 with S58C hMC4R [1]; 7.44 ± 0.11 in the assay with N97D hMC4R (setting [7]); 8.17 ± 0.10 with I102S hMC4R; 8.27 ± 0.12 with L106P hMC4R [2]; 7.06 ± 0.16 in the assay with S127L hMC4R (setting [7]). Further, the “Antagonist pA2” value with I137T hMC4R was 8.33 ± 0.12; in the assay with T150I hMC4R it was 8.34 ± 0.06; with R165Q hMC4R it was 8.57 ± 0.06; with R165W hMC4R it was 8.52 ± 0.17; with G252S hMC4R, 8.53 ± 0.02; in the assay with V253I hMC4R, 8.41 ± 0.17. Moreover, the “Antagonist pA2” value is reported as 8.45 ± 0.03 in the assay with C271Y hMC4R [3] and 8.60 ± 0.07 with I301T hMC4R. For the same compound, the “antagonist potency relative to the wild type control” value in the assay with N97D hMC4R and with S127L hMC4R was “statistically significant decreased” in each case.

For `CSCC[C@H](NC(=O)[C@H](CCCNC(=N)N)NC(=O)[C@H](Cc1ccc(O)cc1)NC(=O)[C@@H]1CCCN1C(=O)CNC(=O)[C@H](CCC(=O)O)NC(=O)[C@H](CC(=O)O)NC(=O)[C@H](CCCCN)NC(=O)[C@H](CCCCN)NC(=O)[C@H](CCC(=O)O)NC(=O)[C@H](C)N)C(=O)N[C@@H](CCC(=O)O)C(=O)N[C@@H](Cc1c[nH]cn1)C(=O)N[C@@H](Cc1ccccc1)C(=O)N[C@@H](CCCNC(=N)N)C(=O)N[C@@H](Cc1c[nH]c2ccccc12)C(=O)NCC(=O)N[C@@H](CO)C(=O)N1CCC[C@H]1C(=O)N1CCC[C@H]1C(=O)N[C@@H](CCCCN)C(=O)N[C@@H](CC(=O)O)C(=O)O` [β-MSH], on C271Y hMC4R [4] (C271Y hMC4R), the response stimulated result was “maximal response”.

On to `C[C@@H]1NC(=O)[C@H](CC(N)=O)NC(=O)[C@H](Cc2c[nH]c3ccccc23)NC(=O)[C@H](CCCNC(=N)N)NC(=O)[C@@H](Cc2ccccc2)NC(=O)[C@H](Cc2c[nH]cn2)NC(=O)[C@@H](NC(=O)[C@@H](N)Cc2ccc(O)cc2)CSSC[C@@H](C(=O)N[C@@H](Cc2ccc(O)cc2)C(N)=O)NC(=O)[C@H](Cc2ccccc2)NC1=O` [AMW3-130, Tyr-c[Cys-His-DPhe-Arg-Trp-Asn-Ala-Phe-Cys]-Tyr-NH2], for which, in the assay with polymorphic hMC4Rs (at all these polymorphic hMC4Rs), the “agonist EC50 potency” value is listed as “sub nM to mM”. In addition, the “agonist function at these hMC4Rs” value in the assay with polymorphic hMC4Rs (eleven human MC4R polymorphisms) is “rescue”.

On to SYSMEHFRWGKPVGKKRRPVKYPN [ACTH(1-24)], for which the “ability to stimulate this receptor” value on S58C hMC4R [5] is “inability”. Besides, the Emax at 1 µM at L106P hMC4R [6] lay in the range of 40 to 50%; at C271Y hMC4R [4] (HEK293, C271Y hMC4R, at 1 μM, read-out: stimulation (maximal stimulation less than the forskolin control level)) it was 42 to 58%.
